These results are taken from a protein production outcome set (Wang et al. 2014).

This series is described as follows: label from the status in PepcDB records.
As to “MHKTAFIWTDEYYNYSFPDYHPFKSLRESMTKRLLEERGAFHFITLVEPKSIPEEALQLVHSKEYIEFVKYKSKEGQGYLDDGDTPAFKGIYEAALIRVSGSVKALELIKSGEFNHTINIGGGFHHAKRNRAAGFCVFNDVALISKLGESFFSRIAIVDIDGHHADGTQELLIDDNNILKISLHMFHPNFFPGTGDVNEIGLGKGEGYTINIPLPPGTGDDGYLLAFDEIVVPAIERYKPELIILVAGGDSHFNDPLVELKLSTHGYLDVVTKIHRLVHEYSNGRLIMLGGGGYNYDATARIWTISIAEIAGIYDLEYETLHDSFSTKSSQFVMEKIRNTISLIKKIHSLN”, the protein production result was “failed”.
In the case of “MHKVLVPFDGSEHAMRALGYVIELSGDLNKPLEVHVLNVQASPIDYSLYLAPDMIDGVKAGLKNEGKRVLDDAIALLAAAGVPFQAHVDLGNVAEQVEAEVQRLGCDAVVMGTRGLGNFGGLLLGSVATRVIHEVSVPVTLIK”, the protein production entry is given as “failed”.
As for “MHKVVIVGRPNVGKSSLFNRLLKKRSAVVADVPGVTRDLKEGVVETDRGRFLLVDTGGLWSGDKWEKKIQEKVDRALEDAEVVLFAVDGRAELTQADYEVAEYLRRKGKPVILVATKVDDPKHELYLGPLYGLGFGDPIPTSSEHARGLEELLEAIWERLPVRQIETEPEVAGIRLAIVGRPNAGKSSLLNAILGEERVIVSEEPGTTRDAIDVEFFFGGQRFVLVDTAGIRKRPENLVEELAIRRSLRAMDEADVVLLVVDPFQVGDRELKLANEALDRGKPVLLVITKWDLVDKEDAPKMRRLLREKLAHLDHLPRVFTSALTRQNLDRIFREAVRLHELNQTRVPTAELNRWVAVWTSRVQMPNFKGKPLKILYATQPEVAPPTFVFFVNHPEFVTRAFENYLKNRIGEDLGLREVPFRLVFRGRREE”, the protein production result is reported as “not failed”.
With “MHLKKIWAVIYAVMLAAFSTFVLLDAFVIPKDRIKADEPIQSQEITDESIEAKAEAVITENSYKDDKISITISELREYDTSIYVADIQLADASYLRAGLADGTFGRNVTEVTSQIAQDSNAILAINGDFYGFRNKGYVMRNGYLYRETAQQGRQGNSRQEDLVIYEDGHMDVIEENEVAAQTLKDSGASQIFSFGPGLIKNGNITVDENSEVEQSMQSNPRTAIGMITPLHYIMAVSDGRTEASEGLTLYQLAQIMKGQDCVTAYNLDGGGSSTMWFNGEVVNKPTSYGSKISERAVSDIVYIGR”, the protein production entry is reported as “failed”.
“MHLNNLNNFNNLENNGEYHCSGPIIKKPFRHIALTVPSSDITNFNEIFYVEPQYIAQAIRLTNTFQGAIDPLTLNFNFEKALQIANGLPNAGVTGTINQSVIHQTIEVSVMISQIKEIIRSVLGLVINSANFWNSVVSAITNTFTNLEPQVDENWIVWRNLSATQTSYFYKILFSIQNEDTGRFMAILPIAFEITVDVQKQQLLFITIKDSARYEVKMKALTVVQALDSYNAPIIDVFNVRNYSLHRPNHNILQNLNVNPIKS”: the protein production entry was “not failed”.
Regarding “MHLPHFALSSVLSLTLCAIPNLGFASSNQTEDSTQARPTWLRDIALSPDGQKIAFTYAGQIWLVPAQGGDAVALTESGVYSETPIWSPDSQSIAFTADRYGLGDVFILSIQGGESRRLTYHGAKDIPYAFSADGQQLYFSSRRLGDDKANANVKQGSFMAQLYSVPAAGGREQRVLPIAISDLAISPSHSDILYTNQPSDEQPWRKGALSDATRDIWQWSPLTGKHTQITTFRGEDRNPVWSADGSSMYYLSEQAGSFNVWQQRFDGSEPVQITDHQKLPVRFLSASLQGDLAYGFDGEIWRLKAGAKQAEKVPVSIRRSAMPDGRHNVNFNLEATEMVVAPNAAEVAIVARGDVYVVSLLSGLTQRITDTPEAERDVSFSSDGYRLIYASEREGSWNLYQSYVNDGGKSFSSSLDIIEEPVLTTEQDVIQPLYSPNLKRIVYRENRNTLKVYDIEQDKTYTLLDAHALYSYFDKDLSYQWSPDSEYIVTRDRAMSNGDIQLLKFDGSEAPINLSQSGFSEFAPQFSADGQWVYWLTDAKGLRDIDDMVVQYDVYGVALNREAKFNFNKTQEQLWLEEEIAAEKNLGPGQNPPAELTVVENKGLKQRTMRMTPTSLNIIFKHLTHDNQALIIAYQLGDSVQISEINLRSGEMTALFNRLSEDAALLAMASDDASLLIMGEHGIENLNVLTGESKFVRYEAKANFDFRAEIRLLV”, the protein production result was “failed”.
